This note sets out measurements from publication PMC6265302, “Widespread bacterial lysine degradation proceeding via glutarate and L-2-hydroxyglutarate” (Nature Communications, 2018).

Holding throughout (details): Filter binding: 50 mM Tris-HCl, 100 mM KCl, 50 mM NaCl, 5 mM MgCl2, pH 7.6, 15 min, footprint: 50 mM MOPS, 100 mM NaCl, 20 mM KCl, 2.5 mM MgCl2, 0.1 mM DTT
Data set [1] deals with T1, CsiR (Escherichia coli BW25113 (K-12)) (UniProt P37338).
T1 sequence: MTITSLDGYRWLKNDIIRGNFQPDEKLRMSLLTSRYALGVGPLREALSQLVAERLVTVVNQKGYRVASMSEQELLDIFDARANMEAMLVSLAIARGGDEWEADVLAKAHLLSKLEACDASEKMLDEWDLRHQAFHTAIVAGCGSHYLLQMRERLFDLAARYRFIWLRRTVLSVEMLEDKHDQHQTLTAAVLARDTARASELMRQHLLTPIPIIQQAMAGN
Description: SPR. For orientation: Surface plasmon resonance follows binding to a sensor surface in real time, without labels.

Data set [2] concerns the target T1, CsiR (Escherichia coli BW25113 (K-12)). The experiment in a line: hydroxyl radical footprinting.
Data set [3] deals with CsiR (Escherichia coli BW25113 (K-12)). Description: SPR.

As a reminder, the Kd is the free concentration of one partner at which half of the binding sites on the other are occupied at equilibrium, for simple one-to-one binding. Regarding “CTTTTGTGCGCATTTTTCAGAAATGTAGATATTTTTAGATTATGGCTACGAAATGAG (double strand) [csiD 5'-UTR/promoter PCR product MS177/MS178]”, the Kd in data set [1] was 10 nM. For the substance “TATGAGATGTAGGGTGACATGGCGATGCTCATTTCGTAGCCATAATCTAAAAATATCTACATTTCTGAAAAATGCGCACAAAAGCGACATATTGTTTTCTTATTGTGATCAAAAGCAACA (double strand) [csiD promoter PCR product MS170/MS171]”, the binding entry in data set [2] is on record as “binds”. In turn, “csiD 5'-UTR/promoter PCR product MS177/MS178” registered a Kd in data set [3] of 10 nM.
